Reference: US20240141072A1 (published 2024)

How the values were obtained:
Test in all cases: Octet BLI; biotinylated huDLL3-IgG1 fusion on streptavidin tips; single 50 nM trispecific, conditioned medium
[1] = target: T1, anti-DLL3 trispecific protein with DLL3 binding domain 52C04
T1 construct: trispecific, one chain; also called 52C4
Procedure: (§1) Using the conditioned medium with known concentrations of the anti-DLL3 trispecific proteins, the relative binding affinities of the anti-DLL3 trispecific proteins toward human DLL3 protein were measured using a method where biotinylated version of human DLL3 protein were expressed as a human IgG1 fusion protein, and the binding affinity measurement was carried out in an Octet instrument with streptavidin tips.

[2] = target: T2, anti-DLL3 trispecific protein with DLL3 binding domain 51E05
T2 construct: trispecific, one chain
T2 sequence (chain, as listed by the source): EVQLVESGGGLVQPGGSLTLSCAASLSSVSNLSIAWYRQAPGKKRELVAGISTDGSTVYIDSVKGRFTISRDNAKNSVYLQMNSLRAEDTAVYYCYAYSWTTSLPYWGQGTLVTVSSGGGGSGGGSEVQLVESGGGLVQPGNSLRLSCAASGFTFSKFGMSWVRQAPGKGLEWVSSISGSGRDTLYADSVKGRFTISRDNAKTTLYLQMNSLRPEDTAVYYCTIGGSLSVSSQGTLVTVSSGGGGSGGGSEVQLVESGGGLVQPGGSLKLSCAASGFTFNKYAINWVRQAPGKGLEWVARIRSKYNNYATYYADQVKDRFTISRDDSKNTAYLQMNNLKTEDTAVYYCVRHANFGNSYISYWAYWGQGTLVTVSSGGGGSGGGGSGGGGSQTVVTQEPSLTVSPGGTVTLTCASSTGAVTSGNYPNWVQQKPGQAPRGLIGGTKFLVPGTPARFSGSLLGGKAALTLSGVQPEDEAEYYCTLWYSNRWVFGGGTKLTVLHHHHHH
Procedure: as §1

[3] = target: T3, anti-DLL3 trispecific protein with DLL3 binding domain 42A06
T3 construct: trispecific, one chain
Procedure: as §1

[4] = target: T4, anti-DLL3 trispecific protein with DLL3 binding domain 42E05
T4 construct: trispecific, one chain
Procedure: as §1

[5] = target: T5, anti-DLL3 trispecific protein with DLL3 binding domain 42D08
T5 construct: trispecific, one chain
Procedure: as §1

[6] = target: T6, anti-DLL3 trispecific protein with DLL3 binding domain 42B10
T6 construct: trispecific, one chain
T6 sequence (chain, as listed by the source): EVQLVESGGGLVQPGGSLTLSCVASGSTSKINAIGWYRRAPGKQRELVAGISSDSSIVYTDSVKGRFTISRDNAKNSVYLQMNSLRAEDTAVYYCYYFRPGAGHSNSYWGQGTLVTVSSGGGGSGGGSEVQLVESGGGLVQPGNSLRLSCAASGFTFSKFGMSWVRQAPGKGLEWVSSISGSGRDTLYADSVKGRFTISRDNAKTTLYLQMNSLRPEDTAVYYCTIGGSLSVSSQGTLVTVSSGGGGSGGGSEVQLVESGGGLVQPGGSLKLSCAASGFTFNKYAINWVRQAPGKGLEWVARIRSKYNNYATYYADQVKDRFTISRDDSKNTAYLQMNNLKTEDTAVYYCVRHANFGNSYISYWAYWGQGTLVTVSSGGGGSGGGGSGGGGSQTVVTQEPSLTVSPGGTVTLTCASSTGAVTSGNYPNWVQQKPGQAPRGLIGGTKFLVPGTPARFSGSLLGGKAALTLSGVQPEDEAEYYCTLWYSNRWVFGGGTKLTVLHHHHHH
Procedure: as §1

[7] = target: T7, anti-DLL3 trispecific protein with DLL3 binding domain 42G07
T7 construct: trispecific, one chain
T7 sequence (chain, as listed by the source): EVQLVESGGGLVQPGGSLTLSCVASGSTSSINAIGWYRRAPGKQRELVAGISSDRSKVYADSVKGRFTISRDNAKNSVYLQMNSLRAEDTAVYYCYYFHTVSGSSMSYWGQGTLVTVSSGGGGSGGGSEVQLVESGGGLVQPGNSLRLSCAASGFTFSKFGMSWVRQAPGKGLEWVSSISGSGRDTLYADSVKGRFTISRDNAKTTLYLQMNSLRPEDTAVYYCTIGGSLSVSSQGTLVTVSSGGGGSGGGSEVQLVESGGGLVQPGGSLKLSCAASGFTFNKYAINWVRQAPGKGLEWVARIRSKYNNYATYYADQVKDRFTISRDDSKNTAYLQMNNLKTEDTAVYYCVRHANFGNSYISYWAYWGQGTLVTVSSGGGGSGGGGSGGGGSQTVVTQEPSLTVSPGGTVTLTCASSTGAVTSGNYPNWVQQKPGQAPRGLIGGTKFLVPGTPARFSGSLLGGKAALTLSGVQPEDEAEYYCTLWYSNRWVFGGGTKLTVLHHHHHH
Procedure: as §1

[8] = target: T8, anti-DLL3 trispecific protein with DLL3 binding domain 51B01
T8 construct: trispecific, one chain
Procedure: as §1

[9] = target: T9, anti-DLL3 trispecific protein with DLL3 binding domain 42C08
T9 construct: trispecific, one chain
T9 sequence (chain, as listed by the source): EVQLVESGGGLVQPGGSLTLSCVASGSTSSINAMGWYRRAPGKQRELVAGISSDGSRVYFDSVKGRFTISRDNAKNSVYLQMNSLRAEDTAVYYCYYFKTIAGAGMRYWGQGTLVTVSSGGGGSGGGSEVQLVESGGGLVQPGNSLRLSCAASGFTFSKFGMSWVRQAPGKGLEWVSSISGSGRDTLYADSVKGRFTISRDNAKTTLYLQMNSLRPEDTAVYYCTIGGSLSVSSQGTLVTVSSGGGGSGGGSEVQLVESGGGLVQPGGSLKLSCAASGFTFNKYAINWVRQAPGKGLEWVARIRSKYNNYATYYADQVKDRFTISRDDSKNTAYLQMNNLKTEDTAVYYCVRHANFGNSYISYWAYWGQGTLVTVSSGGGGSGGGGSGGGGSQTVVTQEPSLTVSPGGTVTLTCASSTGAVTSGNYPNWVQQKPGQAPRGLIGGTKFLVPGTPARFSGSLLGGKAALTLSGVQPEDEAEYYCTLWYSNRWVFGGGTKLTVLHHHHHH
Procedure: as §1

[10] = target: T10, anti-DLL3 trispecific protein with DLL3 binding domain 42A03
T10 construct: trispecific, one chain
Procedure: as §1

[11] = target: T11, anti-DLL3 trispecific protein with DLL3 binding domain 42A11
T11 construct: trispecific, one chain
Procedure: as §1

[12] = target: T12, anti-DLL3 trispecific protein with DLL3 binding domain 42C11
T12 construct: trispecific, one chain
Procedure: as §1

[13] = target: T13, anti-DLL3 trispecific protein with DLL3 binding domain 41C02
T13 construct: trispecific, one chain
T13 sequence (chain, as listed by the source): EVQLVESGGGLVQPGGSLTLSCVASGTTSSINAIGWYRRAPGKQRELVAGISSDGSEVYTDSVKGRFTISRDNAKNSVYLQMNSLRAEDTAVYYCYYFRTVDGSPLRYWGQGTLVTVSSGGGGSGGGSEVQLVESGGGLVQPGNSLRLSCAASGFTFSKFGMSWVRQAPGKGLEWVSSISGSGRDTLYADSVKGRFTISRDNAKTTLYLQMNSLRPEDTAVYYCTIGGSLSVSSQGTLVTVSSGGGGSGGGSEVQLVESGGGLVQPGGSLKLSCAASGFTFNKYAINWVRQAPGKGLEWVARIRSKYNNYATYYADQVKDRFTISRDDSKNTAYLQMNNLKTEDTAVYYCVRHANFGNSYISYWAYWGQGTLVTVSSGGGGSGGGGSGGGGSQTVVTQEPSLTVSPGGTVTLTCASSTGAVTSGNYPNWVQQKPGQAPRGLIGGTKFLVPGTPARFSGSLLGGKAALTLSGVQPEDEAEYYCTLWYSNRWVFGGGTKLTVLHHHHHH
Procedure: as §1

[14] = target: T14, anti-DLL3 trispecific protein with DLL3 binding domain 51B11
T14 construct: trispecific, one chain
Procedure: as §1

[15] = target: T15, anti-DLL3 trispecific protein with DLL3 binding domain 42H05
T15 construct: trispecific, one chain
T15 sequence (chain, as listed by the source): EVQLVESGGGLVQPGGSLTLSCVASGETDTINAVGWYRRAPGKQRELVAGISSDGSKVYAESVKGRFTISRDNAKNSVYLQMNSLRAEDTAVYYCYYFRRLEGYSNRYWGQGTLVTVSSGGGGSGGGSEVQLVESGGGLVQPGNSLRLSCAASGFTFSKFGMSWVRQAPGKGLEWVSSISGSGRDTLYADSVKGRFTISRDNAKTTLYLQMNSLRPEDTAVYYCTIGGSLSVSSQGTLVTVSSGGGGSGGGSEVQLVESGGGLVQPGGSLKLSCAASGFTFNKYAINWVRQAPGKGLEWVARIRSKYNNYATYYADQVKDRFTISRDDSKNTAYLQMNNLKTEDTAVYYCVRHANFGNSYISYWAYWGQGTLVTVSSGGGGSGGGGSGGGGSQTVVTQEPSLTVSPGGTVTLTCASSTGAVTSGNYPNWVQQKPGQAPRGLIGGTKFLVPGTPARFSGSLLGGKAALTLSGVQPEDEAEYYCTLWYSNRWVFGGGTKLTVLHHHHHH
Procedure: as §1

[16] = target: T16, anti-DLL3 trispecific protein with DLL3 binding domain 41D02
T16 construct: trispecific, one chain
Procedure: as §1

[17] = target: T17, anti-DLL3 trispecific protein with DLL3 binding domain 42H11
T17 construct: trispecific, one chain
Procedure: as §1

[18] = target: T18, anti-DLL3 trispecific protein with DLL3 binding domain 42A07
T18 construct: trispecific, one chain
Procedure: as §1

[19] = target: T19, anti-DLL3 trispecific protein with DLL3 binding domain 42C10
T19 construct: trispecific, one chain
T19 sequence (chain, as listed by the source): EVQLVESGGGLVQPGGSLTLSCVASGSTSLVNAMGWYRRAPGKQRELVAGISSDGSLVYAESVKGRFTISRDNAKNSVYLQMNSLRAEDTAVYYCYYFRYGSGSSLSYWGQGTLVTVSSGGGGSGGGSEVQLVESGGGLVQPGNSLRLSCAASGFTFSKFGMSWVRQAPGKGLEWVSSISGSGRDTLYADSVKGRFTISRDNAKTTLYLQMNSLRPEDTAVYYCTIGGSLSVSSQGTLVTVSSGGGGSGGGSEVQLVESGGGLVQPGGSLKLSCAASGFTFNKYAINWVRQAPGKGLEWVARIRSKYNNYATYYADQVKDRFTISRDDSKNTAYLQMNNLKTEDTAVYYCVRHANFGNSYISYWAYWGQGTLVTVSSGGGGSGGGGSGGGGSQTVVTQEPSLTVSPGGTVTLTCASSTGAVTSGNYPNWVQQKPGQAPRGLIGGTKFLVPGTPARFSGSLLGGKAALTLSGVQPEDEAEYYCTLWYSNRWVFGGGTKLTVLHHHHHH
Procedure: as §1

[20] = target: T20, anti-DLL3 trispecific protein with DLL3 binding domain 41E02
T20 construct: trispecific, one chain
Procedure: as §1

[21] = target: T21, anti-DLL3 trispecific protein with DLL3 binding domain 42C01
T21 construct: trispecific, one chain
Procedure: as §1

[22] = target: T22, anti-DLL3 trispecific protein with DLL3 binding domain 42E07
T22 construct: trispecific, one chain
Procedure: as §1

[23] = target: T23, anti-DLL3 trispecific protein with DLL3 binding domain 42D07
T23 construct: trispecific, one chain
T23 sequence (chain, as listed by the source): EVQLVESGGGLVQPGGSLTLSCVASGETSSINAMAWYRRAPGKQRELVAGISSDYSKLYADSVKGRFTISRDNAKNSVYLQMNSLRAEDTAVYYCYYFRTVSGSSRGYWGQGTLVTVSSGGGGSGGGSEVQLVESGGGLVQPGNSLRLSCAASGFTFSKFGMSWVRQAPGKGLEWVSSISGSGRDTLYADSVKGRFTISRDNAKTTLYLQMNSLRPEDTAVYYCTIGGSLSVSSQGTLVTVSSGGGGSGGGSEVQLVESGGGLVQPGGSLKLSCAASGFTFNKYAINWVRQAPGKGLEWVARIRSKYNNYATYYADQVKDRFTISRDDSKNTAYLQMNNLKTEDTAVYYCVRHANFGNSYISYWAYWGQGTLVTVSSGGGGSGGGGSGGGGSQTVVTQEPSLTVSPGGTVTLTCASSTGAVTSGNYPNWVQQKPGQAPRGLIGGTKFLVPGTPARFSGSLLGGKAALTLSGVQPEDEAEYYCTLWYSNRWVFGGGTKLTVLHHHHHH
Procedure: as §1

[24] = target: T24, anti-DLL3 trispecific protein with DLL3 binding domain 51F04
T24 construct: trispecific, one chain
Procedure: as §1

[25] = target: T25, anti-DLL3 trispecific protein with DLL3 binding domain 41B11
T25 construct: trispecific, one chain
T25 sequence (chain, as listed by the source): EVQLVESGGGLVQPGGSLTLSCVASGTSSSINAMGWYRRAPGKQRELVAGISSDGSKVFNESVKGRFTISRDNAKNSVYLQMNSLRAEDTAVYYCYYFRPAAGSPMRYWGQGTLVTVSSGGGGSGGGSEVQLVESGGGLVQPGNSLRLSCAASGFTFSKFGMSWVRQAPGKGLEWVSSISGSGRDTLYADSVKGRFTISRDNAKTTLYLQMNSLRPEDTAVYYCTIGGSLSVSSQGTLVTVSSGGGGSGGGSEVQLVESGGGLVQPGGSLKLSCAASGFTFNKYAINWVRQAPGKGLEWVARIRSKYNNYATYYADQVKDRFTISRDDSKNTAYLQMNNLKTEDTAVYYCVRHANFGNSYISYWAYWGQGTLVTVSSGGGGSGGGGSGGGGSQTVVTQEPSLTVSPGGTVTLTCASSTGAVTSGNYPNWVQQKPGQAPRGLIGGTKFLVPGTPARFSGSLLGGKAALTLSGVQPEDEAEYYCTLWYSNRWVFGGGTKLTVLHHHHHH
Procedure: as §1

[26] = target: T26, anti-DLL3 trispecific protein with DLL3 binding domain 51B04
T26 construct: trispecific, one chain
Procedure: as §1

[27] = target: T27, anti-DLL3 trispecific protein with DLL3 binding domain 52B01
T27 construct: trispecific, one chain; also called 52B1
Procedure: as §1

[28] = target: T28, anti-DLL3 trispecific protein with DLL3 binding domain 53B06
T28 construct: trispecific, one chain
Procedure: as §1

B1: biotinylated human DLL3 protein expressed as a human IgG1 fusion protein (Fc fusion, not shown: a dimerising Fc or GST)
chain: AGVFELQIHSFGPGPGPGAPRSPCSARLPCRLFFRVCLKPGLSEEAAESPCALGAALSARGPVYTEQPGAPAPDLPLPDGLLQVPFRDAWPGTFSFIIETWREELGDQIGGPAWSLLARVAGRRRLAAGGPWARDIQRAGAWELRFSYRARCEPPAVGTACTRLCRPRSAPSRCGPGLRPCAPLEDECEAPLVCRAGCSPEHGFCEQPGECRCLEGWTGPLCTVPVSTSSCLSPRGPSSATTGCLVPGPGPCDGNPCANGGSCSETPRSFECTCPRGFYGLRCEVSGVTCADGPCFNGGLCVGGADPDSAYICHCPPGFQGSNCEKRVDRCSLQPCRNGGLCLDLGHALRCRCRAGFAGPRCEHDLDDCAGRACANGGTCVEGGGAHRCSCALGFGGRDCRERADPCAARPCAHGGRCYAHFSGLVCACAPGYMGARCEFPVHPDGASALPAAPPGLRPGDPQRYL
modifications: biotinylated
- Kd [1]: 0.82 nM
- Kd [2]: 0.97 nM
- Kd [3]: 1 nM
- Kd [4]: 1.2 nM
- Kd [5]: 1.3 nM
- Kd [6]: 1.3 nM
- Kd [7]: 1.3 nM
- Kd [8]: 1.6 nM
- Kd [9]: 1.8 nM
- Kd [10]: 1.9 nM
- Kd [11]: 2 nM
- Kd [12]: 2.3 nM
- Kd [13]: 2.4 nM
- Kd [14]: 2.4 nM
- Kd [15]: 2.7 nM
- Kd [16]: 2.7 nM
- Kd [17]: 3.1 nM
- Kd [18]: 3.2 nM
- Kd [19]: 3.2 nM
- Kd [20]: 3.4 nM
- Kd [21]: 3.6 nM
- Kd [22]: 3.9 nM
- Kd [23]: 5.3 nM
- Kd [24]: 6.7 nM
- Kd [25]: 9.9 nM
- Kd [26]: 16 nM
- Kd [27]: 0.61 nM
- Kd [28]: 0.71 nM
